Experimental data taken from paper PMC4773448, “Isolation and Characterization of a Novel Cold-Adapted Esterase, MtEst45, from Microbulbifer thermotolerans DAU221” (Frontiers in Microbiology, 2016).

Substrate: CCCC(=O)Oc1ccc([N+](=O)[O-])cc1
Assay: purified protein
Type: biochemical, Microbulbifer thermotolerans
Settings: 20 mM Tris-HCl pH 8.17, 46.27 °C, 0.1-1 mM substrate

B1: MtEst45 (Microbulbifer thermotolerans) (protein)
chain: APRFISNLDIISFDGTELDANLFVPDTPPPDGGYPTVLFTNSWALDKHQYLLQAKALAEKGYLVMSYSTRGFGKSGGLVDVAGDNTLADTRVLIDWLEANYPVGKLGMAGISYGAGISLLTAAADSRVDAVAALSGWSDVVEGLYPNNTVNLVWGTLLVNTAFKREPIVDQIWSNLRNGHNLSDVFTFSASRSALSYVDALNANGTAVLLSNNFADYLFKPNSTIDLYTLLEGPKKLLLNPGTHAVTETLGGNGGHIWTTSFRWFDRYLKGENNGIDREPKVDMTVRISNRLEQFDDFPVTGKQSHWYLHPRLTYFGNGQLKSNPYSGWRWSNQFHSGADTAAGTGIPLVSDALEGLGIPVYTFMPAINGYYAIEYQSPLLWNGMKIRGTPTLEMWITPSKPEVQLHLHLYDTGPLGMGRLITHAPITLRNAQVGREQKIDVEFFTTSYDVPAGHRVTLAIDTEGLIYQKPADTDYEITVPYRSDRVSKLAIPQL
notes: mature form without 21-residue signal peptide (495 aa of 516); N-terminal His6 (pCold I), E. coli BL21(DE3), tag not reported cut; about 45 kDa on SDS-PAGE
For B1, the Km was 99.8 µM.
